Experimental data: patent publication US20250270566A1, “DUAL-SPECIFICITY RNA ATPAMERS FOR REGULATING O-GLCNACYLATION” (University of Georgia Research Foundation, Inc., published 2025)

Tests used:
[1] = molecular target: T1, KAT2A (GCN5) (UniProt Q92830 2-837); assay: PLA with antibodies to β-catenin and KAT2A, confocal images of HEK293T cells, -Wnt, T1 • bc339 or 3JB8F+12
T1 construct: Endogenous protein in HEK293T cells; also called KAT2A/GCN5L2
Protocol: FIGS. 12A to 12P show O-GlcNAc regulates β-catenin's interactions with KAT2A. FIGS. 12A to 12H contain confocal images of Proximity Ligation Assay (PLA) on HEK293T cells. Cells were transfected with plasmids encoding the control aptamers (T1·bc339) or a DS aptamer (3JB8F+12 or 3JB8R+12) and stimulated with regular (−Wnt) or Wnt3A-conditioned (+Wnt) medium. PLA was performed with antibodies targeting […] and KAT2A or H3K9ac. In FIGS. 12C and 12D, cells were treated with 50 μM Ac5S for 20 hr. FIGS. 12I to 12P show quantification of FIGS. 12A to 12H. PLA puncta in nucleus were counted and normalized to the number of nuclei in each view. Student's t-test was performed. Data are represented as mean±SD. ns, p≥0.05; ***, p<0.001; ****, p<0.0001. N=10. T1·bc339—Individual T1 and bc339 aptamers (control). 3JB8F+12/R+12—DS aptamers (T1-linker-bc339) with folded linkers.

[2] = molecular target: T2, EP300 (UniProt Q09472 2-2414); assay: PLA with antibodies to β-catenin and EP300, confocal images of HEK293T cells, -Wnt, T1 • bc339 or 3JB8F+12
T2 construct: Endogenous protein in HEK293T cells
Protocol: FIGS. 13A to 13P show O-GlcNAc regulates β-catenin's interactions with other epigenetic modifiers and β-TrCP. FIGS. 13A to 13F contain confocal images of PLA on HEK293T cells. Cells were transfected with plasmids encoding the control aptamers (T1·bc339) or a DS aptamer (3JB8F+12), and stimulated with regular (−Wnt) or Wnt3A-conditioned (+Wnt) medium. PLA was performed with antibodies targeting β-catenin and EP300, KAT5, or β-TrCP. FIGS. 13G and 13H contain confocal images of the negative control experiments of PLA. Cells were treated with regular (−Wnt) or Wnt3A-conditioned (+Wnt) medium. PLA was performed with the antibody targeting β-catenin and normal rabbit IgG. FIGS. 13I to 13P show quantification of FIGS. 13A to 13H. Nuclear or total PLA puncta were counted and normalized to the number of nuclei in each view. N=10 (I to N) or N=5 (O to P). Student's t-test was performed. Data are represented as mean±SD. **, p<0.01; ***, p<0.001. T1·bc339—Individual T1 and bc339 aptamers (control). 3JB8F+12—A DS aptamer (T1-linker-bc339) with a folded linker.

[3] = molecular target: β-catenin (UniProt P35222 P35222:1-781); assay: SPR; intracellular buffer (20 mM HEPES, 110 mM KCl, 10 mM NaCl, 0.4 mM MgCl2, 5 mM KH2PO4, pH 7.2), 25 C; details: tags: His tag (Ni-NTA purified, pET28a-β-catenin, E. coli)
Protocol: Total PLA puncta was counted and normalized to the number of nuclei in each view. Student's t-test was performed. N=8. […] Nucleus and cytoplasm of cells stably expressing 3JB8F+12 was isolated, and RNA in each fraction was quantified by RT-qPCR. RNA abundances were normalized to that of 3JB8F+12 in whole cell lysate (purple bar in upper panel). NEAT1 is a nuclear RNA control, and GAPDH is a cytoplasmic RNA control. Cyt.—Cytoplasm. Nuc.—Nucleus. W.C.—Whole Cell. N=4. T1·bc339—Individual T1 and bc339 aptamers (control). NL8F50/70/100—DS aptamers (T1-linker-bc339) with flexible linkers of 50/70/100 nt. 3JB8F—DS aptamers (T1-linker-bc339) with folded linkers. +4/+12, serial additions (bp) into the folded linker. Quantitated data are normalized to the control group (T1·bc339). Aptamers were expressed from plasmids, and One-way ANOVA test was performed unless indicated. Data are represented as mean±SD. ns, p≥0.05; *, p<0.05; **, p<0.01; ***, p<0.001; ****, p<0.0001.
(§1) For SPR, Multi Cycle Kinetics was performed according to (Chang, A. L., et al. Methods Enzymol 2014 549:451-466) on a Biacore T100 (GE Healthcare/Cytiva) instrument at 25° C. […] Data was analyzed using the Biacore Evaluation Software (GE Healthcare/Cytiva), where the overlaid sensorgrams were fitted into a 1:1 binding model.

[4] = molecular target: T3, ncOGT full-length (OGT-FL, nucleocytoplasmic O-GlcNAc transferase) (UniProt O15294 O15294:1-1046); assay: SPR; ABB (20 mM Tris-HCl, 150 mM NaCl, 5 mM MgCl2, 0.05% Tween-20, pH 7.5), 25 C, 1:1 model; details: tags: His tag (Ni-NTA purified, pET24a-ncOGT-FL, E. coli)
T3 sequence: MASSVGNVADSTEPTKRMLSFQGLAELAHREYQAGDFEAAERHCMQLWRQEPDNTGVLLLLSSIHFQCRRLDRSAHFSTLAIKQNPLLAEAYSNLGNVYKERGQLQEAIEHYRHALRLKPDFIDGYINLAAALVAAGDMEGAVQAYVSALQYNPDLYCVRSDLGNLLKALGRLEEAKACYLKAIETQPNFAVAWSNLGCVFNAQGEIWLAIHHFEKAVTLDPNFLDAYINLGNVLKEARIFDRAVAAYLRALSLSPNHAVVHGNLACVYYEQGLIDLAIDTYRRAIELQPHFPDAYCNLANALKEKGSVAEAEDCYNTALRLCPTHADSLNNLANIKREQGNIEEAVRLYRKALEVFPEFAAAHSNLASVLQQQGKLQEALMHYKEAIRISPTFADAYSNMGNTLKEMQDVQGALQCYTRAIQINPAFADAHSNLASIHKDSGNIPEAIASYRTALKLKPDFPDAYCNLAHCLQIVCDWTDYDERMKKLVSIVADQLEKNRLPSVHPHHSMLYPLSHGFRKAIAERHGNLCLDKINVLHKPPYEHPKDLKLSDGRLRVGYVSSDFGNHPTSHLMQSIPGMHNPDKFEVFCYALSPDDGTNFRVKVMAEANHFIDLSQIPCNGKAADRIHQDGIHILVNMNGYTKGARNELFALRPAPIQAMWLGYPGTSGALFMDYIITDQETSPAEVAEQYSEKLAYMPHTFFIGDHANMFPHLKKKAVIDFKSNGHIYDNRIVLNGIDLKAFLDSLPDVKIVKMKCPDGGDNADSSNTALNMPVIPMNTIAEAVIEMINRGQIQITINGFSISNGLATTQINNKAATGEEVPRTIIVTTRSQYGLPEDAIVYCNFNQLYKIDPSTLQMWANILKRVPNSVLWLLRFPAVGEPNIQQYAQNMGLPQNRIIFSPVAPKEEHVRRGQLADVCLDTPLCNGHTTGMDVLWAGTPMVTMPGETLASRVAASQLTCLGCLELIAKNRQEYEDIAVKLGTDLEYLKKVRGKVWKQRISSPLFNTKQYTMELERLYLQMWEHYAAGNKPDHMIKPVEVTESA
Protocol: T1 was included in the indicated reactions (orange) from 2 μM to 7.8 nM in 2× serial dilution. Data were normalized to the positive control reaction (red). One-way ANOVA test was performed. […] OGT was immunoprecipitated from lysate of T1-expressing cells, using buffers with Mg²⁺ (left) or without Mg²⁺ (right). Then the OGT-bound T1 was quantified by RT-qPCR. Data were normalized to the IgG groups. One-way ANOVA test was performed. RT—Reverse Transcriptase. N=3. […] N=3. […] Cells stably expressing T1 were treated with ActD for the indicated periods. Abundance of T1 was quantified by RT-qPCR (left) and normalized to that of 18S rRNA (right) and initial timepoint (T=0). Data were fitted to a one-phase decay model (curve). N=3. Data are represented as mean±SD. ns, p≥0.05; ****, p<0.0001.
as §1, with “C. In assay preparation, an amine-modified T24 DNA linker (NH2-T24) was immobilized to approximately 100 RU in both reference and test flow cells on a sensorchip PEG (GE Healthcare/Cytiva 29239810), using the Amine Coupling Kit (GE Healthcare/Cytiva BR100050).” for “C.”

[5] = molecular target: T3, ncOGT full-length (OGT-FL, …); assay: FP filter; radiolabeled dot blot (nitrocellulose filter), ABB with 5 mM MgCl2, 37 C, yeast tRNA and BSA competitors; details: tags: His tag (Ni-NTA purified, pET24a-ncOGT-FL, E. coli); label: 5'-32P (dot blot)
Protocol: Radiolabeled RNA was diluted in ABB, denatured at 65° C. for 5 min and re-folded at room temperature for 5 min. Then 100 nM of RNA was incubated with multiple concentrations (see Figure legends) of purified ncOGT at 37° C. for 30 min. The volume of each assay was 50 μL. 1 μM yeast tRNA (Invitrogen AM7119) and 50 μg/mL Bovine Serum Albumin (BSA, NEB B9001S) were included as non-specific competitors. After incubation, the reactions were filtered sequentially through a nitrocellulose membrane (Amersham 10600042) and a Nylon membrane (Invitrogen AM10102), on a Bio-Dot Microfiltration Apparatus (Bio-Rad 170-6545). Membranes were washed with 100 μL ABB to remove unbound RNA. Washed membranes were air-dried and exposed to a film (Amersham 28906836) for 2 hr. The film was developed and scanned, and the image was analyzed with Fiji (Schindelin, J., et al. Nat Methods 2012 9:676-682). Quantified data was fitted into a Michaelis-Menten model using GraphPad Prism.

T1 sequence (Q92830 2-837 limits assumed): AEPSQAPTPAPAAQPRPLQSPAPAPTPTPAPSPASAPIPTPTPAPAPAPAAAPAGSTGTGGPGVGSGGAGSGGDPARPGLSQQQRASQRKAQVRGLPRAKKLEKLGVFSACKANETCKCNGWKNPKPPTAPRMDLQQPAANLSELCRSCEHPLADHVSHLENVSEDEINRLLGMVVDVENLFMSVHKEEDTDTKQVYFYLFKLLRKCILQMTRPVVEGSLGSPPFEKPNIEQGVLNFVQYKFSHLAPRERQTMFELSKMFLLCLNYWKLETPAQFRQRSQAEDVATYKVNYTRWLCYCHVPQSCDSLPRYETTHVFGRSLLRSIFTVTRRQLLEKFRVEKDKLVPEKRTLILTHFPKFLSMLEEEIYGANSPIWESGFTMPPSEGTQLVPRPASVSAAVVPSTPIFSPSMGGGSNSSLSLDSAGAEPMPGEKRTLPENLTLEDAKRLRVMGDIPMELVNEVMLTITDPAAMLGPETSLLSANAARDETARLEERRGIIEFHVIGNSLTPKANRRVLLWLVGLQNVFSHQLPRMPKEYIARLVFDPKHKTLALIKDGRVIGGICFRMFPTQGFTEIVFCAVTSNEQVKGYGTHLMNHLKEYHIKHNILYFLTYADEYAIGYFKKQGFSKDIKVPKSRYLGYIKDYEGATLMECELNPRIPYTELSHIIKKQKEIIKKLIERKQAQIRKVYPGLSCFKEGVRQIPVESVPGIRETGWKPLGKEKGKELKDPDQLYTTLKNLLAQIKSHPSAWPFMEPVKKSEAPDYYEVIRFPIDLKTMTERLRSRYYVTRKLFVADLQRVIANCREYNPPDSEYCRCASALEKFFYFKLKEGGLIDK
T2 sequence (Q09472 2-2414 limits assumed): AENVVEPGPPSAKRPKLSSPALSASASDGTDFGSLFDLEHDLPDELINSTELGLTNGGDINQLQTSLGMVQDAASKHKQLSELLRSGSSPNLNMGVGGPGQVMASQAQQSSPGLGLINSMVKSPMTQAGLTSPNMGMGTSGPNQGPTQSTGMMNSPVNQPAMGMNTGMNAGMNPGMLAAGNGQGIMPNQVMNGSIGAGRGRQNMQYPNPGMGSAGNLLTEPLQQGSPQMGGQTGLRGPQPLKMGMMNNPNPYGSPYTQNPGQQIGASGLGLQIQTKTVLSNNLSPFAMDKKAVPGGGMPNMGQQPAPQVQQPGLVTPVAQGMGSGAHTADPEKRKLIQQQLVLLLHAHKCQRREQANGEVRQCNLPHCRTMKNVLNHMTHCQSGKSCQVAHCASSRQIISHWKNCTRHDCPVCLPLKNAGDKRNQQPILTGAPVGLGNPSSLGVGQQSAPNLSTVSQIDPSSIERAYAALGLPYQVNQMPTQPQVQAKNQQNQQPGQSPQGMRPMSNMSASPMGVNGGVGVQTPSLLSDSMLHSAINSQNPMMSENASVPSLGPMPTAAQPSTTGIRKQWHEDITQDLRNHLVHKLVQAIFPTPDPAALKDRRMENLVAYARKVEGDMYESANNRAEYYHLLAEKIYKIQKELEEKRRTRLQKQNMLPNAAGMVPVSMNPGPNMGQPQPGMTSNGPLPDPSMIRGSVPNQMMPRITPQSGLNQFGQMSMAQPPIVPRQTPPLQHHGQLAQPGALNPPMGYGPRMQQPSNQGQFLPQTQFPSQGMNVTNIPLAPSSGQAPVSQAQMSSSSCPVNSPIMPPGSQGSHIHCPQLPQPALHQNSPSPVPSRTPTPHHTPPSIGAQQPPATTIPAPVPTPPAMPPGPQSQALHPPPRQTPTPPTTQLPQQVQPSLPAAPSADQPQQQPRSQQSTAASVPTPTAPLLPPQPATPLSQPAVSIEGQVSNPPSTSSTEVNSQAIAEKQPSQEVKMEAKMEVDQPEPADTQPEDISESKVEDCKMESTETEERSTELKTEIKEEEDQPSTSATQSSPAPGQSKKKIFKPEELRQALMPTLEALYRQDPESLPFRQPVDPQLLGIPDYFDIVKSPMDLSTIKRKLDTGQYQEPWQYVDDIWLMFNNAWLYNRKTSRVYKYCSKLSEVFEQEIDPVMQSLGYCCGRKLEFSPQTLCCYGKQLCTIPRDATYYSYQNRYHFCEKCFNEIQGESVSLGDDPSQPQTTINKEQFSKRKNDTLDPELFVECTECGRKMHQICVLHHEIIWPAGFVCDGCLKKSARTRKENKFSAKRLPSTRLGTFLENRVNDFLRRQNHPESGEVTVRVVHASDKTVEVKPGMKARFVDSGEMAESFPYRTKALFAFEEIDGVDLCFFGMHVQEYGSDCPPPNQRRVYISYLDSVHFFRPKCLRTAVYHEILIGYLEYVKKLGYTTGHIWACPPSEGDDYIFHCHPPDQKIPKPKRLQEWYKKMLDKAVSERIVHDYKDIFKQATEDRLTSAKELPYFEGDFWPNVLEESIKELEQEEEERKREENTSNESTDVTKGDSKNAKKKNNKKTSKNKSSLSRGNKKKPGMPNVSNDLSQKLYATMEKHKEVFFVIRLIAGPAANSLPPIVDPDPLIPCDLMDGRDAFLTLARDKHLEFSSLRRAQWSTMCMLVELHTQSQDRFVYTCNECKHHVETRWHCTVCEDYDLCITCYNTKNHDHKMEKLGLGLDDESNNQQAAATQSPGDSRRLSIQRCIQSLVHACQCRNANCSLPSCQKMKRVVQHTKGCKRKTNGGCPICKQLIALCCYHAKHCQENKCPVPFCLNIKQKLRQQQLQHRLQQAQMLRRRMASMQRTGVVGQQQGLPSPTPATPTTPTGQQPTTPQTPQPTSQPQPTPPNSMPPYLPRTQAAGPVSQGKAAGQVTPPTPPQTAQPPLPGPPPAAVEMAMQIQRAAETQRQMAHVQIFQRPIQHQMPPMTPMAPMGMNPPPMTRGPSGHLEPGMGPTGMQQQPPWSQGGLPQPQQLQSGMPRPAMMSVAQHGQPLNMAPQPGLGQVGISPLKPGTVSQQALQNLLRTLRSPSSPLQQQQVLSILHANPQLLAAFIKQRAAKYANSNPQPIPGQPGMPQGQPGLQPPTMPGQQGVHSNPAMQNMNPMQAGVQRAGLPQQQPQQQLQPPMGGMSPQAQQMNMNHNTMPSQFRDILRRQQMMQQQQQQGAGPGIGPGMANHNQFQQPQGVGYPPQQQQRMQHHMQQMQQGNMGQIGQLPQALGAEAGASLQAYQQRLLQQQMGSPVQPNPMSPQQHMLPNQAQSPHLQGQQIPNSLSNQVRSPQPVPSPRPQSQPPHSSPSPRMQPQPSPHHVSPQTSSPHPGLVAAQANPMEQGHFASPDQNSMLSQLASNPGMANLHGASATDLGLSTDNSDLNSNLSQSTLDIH

B1: β-catenin (endogenous, in HEK293T cells) (other, UniProt P35222 2-781, looked up)
chain: ATQADLMELDMAMEPDRKAAVSHWQQQSYLDSGIHSGATTTAPSLSGKGNPEEEDVDTSQVLYEWEQGFSQSFTQEQVADIDGQYAMTRAQRVRAAMFPETLDEGMQIPSTQFDAAHPTNVQRLAEPSQMLKHAVVNLINYQDDAELATRAIPELTKLLNDEDQVVVNKAAVMVHQLSKKEASRHAIMRSPQMVSAIVRTMQNTNDVETARCTAGTLHNLSHHREGLLAIFKSGGIPALVKMLGSPVDSVLFYAITTLHNLLLHQEGAKMAVRLAGGLQKMVALLNKTNVKFLAITTDCLQILAYGNQESKLIILASGGPQALVNIMRTYTYEKLLWTTSRVLKVLSVCSSNKPAIVEAGGMQALGLHLTDPSQRLVQNCLWTLRNLSDAATKQEGMEGLLGTLVQLLGSDDINVVTCAAGILSNLTCNNYKNKMMVCQVGGIEALVRTVLRAGDREDITEPAICALRHLTSRHQEAEMAQNAVRLHYGLPVVVKLLHPPSHWPLIKATVGLIRNLALCPANHAPLREQGAIPRLVQLLVRAHQDTQRRTSMGGTQQQFVEGVRMEEIVEGCTGALHILARDVHNRIVIRGLNTIPLFVQLLYSPIENIQRVAAGVLCELAQDKEAAEAIEAEGATAPLTELLHSRNEGVATYAAAVLFRMSEDKPQDYKKRLSVELTSSLFRTEPMAWNETADLGLDIGAQGEPLGYRQDDPSYRSFHSGGYGQDALGMDPMMEHEMGGHHPGADYPVDGLPDLGHAQDLMDGLPPGDSNQLAWFDTDL
modifications: O-GlcNAc at varying levels (raised by the DS aptamer 3JB8F+12); sites not fully mapped
notes: Endogenous protein detected in fixed cells (PLA) or cell lysate (Co-IP) with an anti-β-catenin antibody; HEK293T is a human cell line; also called endogenous β-catenin
- binding result [1]: binds
- binding result [2]: binds

B2: bc339 with 3' A28 tail (ssRNA)
RNA: AGCUUCUGGGCGGCGAUGAGAUGACGUGUGCGGUGGUCGAGAGGUACCUUGGGUGAGGGAAGGGAAGGGAGGUUGACCACUGCGUGACUGCCCAGAAGCU
- Kd [3]: 16 nM

B3: T1 with 3' A28 tail (ssRNA)
RNA: GGGAGAAUCACUUACGGAUCCUCGUUAAGUGGCUCUCAGUCGCCCGUAACUCCGAUGCCGAUGCAGCGGCGACAACUGCACCCAAGGCUCGGAAGCUU
- Kd [4]: 60.5 nM

B4: T1 (ssRNA)
RNA: GGGAGAAUCACUUACGGAUCCUCGUUAAGUGGCUCUCAGUCGCCCGUAACUCCGAUGCCGAUGCAGCGGCGACAACUGCACCCAAGGCUCGGAAGCUU
- Kd [5]: ~60 nM
